This is an account of results in patent publication US20210246218A1 (LYVGEN BIOPHARMA SUZHOU, published 2021).

Common to all, as to experiment: ELISA, protein coated at 1 µg/mL
For orientation: In an ELISA, binding on a coated surface is turned into a signal by an enzyme label.

Assay [1] deals with T1, mouse CD137 protein (mouse, UniProt P20334 24-187).
T1 construct: Coated on ELISA plates; also called Rodent CD137; murine CD137
T1 sequence (looked up): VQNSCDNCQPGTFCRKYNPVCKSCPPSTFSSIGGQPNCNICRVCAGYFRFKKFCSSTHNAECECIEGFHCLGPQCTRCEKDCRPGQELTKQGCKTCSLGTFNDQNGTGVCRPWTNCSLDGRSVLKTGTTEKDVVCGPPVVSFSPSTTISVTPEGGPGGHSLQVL
Here is the method: (§1) The plate was decanted and washed once; assay diluent was added at 200 μL/well. After a 1-hour incubation at room temperature, the plate was washed with PBST one time. […] These samples were added into the plate 50 μL/well. The plate was incubated 1 hour at room temperature and then washed three times with PBST. Goat anti-human IgG-H+L HRP-conjugated at 1:100,000 dilution or goat anti-mouse IgG (H+L) secondary antibody, HRP, at 1:50,000 dilution was added to the plate at 100 μL/well. The plate was incubated 1 hour at room temperature followed by washing with PBST four times. The TMB substrate solution was added 100 μL/well. The color was permitted to develop for 15 minutes and then 100 μL/well 2N H₂SO₄ was added to terminate the reaction. Absorbance at 450 nm and 620 nm was determined by a Tecan F200 Pro reader.

Assay [2] has as its target T2, human LAG-3 protein (human, UniProt P18627 23-450).
T2 sequence (looked up): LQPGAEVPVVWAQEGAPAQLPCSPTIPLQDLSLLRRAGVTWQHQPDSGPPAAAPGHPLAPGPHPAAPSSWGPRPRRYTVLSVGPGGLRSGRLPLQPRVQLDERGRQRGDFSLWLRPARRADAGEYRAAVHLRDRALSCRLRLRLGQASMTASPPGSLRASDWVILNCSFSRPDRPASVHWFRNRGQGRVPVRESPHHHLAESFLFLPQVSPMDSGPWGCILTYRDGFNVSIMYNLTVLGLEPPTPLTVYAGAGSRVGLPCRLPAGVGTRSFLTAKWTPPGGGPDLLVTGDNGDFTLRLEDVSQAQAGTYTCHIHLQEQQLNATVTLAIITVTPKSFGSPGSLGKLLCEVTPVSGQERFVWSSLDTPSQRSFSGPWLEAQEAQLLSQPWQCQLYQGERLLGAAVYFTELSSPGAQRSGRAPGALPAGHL
Here is the method: as §1

In assay [3] the target is T3, human B7-H3 protein (human, UniProt Q5ZPR3 29-461, limits assumed).
T3 sequence (looked up): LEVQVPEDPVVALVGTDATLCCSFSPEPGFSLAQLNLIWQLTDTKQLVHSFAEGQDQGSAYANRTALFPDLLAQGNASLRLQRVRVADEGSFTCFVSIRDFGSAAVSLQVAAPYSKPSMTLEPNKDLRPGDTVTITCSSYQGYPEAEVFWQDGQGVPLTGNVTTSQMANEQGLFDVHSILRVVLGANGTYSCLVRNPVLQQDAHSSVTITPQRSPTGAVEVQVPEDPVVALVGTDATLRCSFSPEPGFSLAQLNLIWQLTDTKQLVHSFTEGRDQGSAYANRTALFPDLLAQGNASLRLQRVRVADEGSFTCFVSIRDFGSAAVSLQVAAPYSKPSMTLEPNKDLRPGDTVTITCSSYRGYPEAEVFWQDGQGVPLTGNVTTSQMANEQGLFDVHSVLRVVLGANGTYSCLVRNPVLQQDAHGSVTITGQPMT
Here is the method:
as §1

Assay [4] concerns the target T4, human B7-H4 protein (human, UniProt Q7Z7D3 29-258, limits assumed).
T4 sequence (looked up): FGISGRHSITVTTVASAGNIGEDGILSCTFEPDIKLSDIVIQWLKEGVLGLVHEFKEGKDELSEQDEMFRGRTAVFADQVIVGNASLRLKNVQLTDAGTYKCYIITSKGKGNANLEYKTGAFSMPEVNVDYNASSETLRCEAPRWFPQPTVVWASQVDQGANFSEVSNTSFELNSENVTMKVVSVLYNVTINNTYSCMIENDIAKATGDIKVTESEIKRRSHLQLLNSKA
Here is the method:
as §1

The target of assay [5] is T5, human GITR protein (human, UniProt Q9Y5U5 26-161).
T5 sequence (looked up): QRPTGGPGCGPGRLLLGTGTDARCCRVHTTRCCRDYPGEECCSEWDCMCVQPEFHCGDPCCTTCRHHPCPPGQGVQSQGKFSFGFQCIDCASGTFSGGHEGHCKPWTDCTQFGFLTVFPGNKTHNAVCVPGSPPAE
As to the method:
as §1

Assay [6] concerns the target human CD40 protein (human, UniProt P25942 21-193). As to the method:
as §1

Assay [7] has as its target T6, human CD20 protein (human, UniProt P11836 1-297, limits assumed).
T6 sequence (looked up): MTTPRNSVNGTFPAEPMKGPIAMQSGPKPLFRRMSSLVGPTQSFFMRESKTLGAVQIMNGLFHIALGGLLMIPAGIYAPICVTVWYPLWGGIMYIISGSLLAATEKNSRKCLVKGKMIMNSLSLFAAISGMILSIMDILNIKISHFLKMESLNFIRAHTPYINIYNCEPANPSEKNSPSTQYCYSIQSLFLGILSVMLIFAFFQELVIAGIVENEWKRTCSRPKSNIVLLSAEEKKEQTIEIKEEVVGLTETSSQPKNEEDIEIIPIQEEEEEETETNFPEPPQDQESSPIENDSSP
Here is the method: as §1

Assay [8] has as its target human CD47 protein (human, UniProt Q08722 19-139). Here is the method:
as §1

In assay [9] the target is T7, human CD19 protein (human, UniProt P15391 20-291).
T7 sequence (looked up): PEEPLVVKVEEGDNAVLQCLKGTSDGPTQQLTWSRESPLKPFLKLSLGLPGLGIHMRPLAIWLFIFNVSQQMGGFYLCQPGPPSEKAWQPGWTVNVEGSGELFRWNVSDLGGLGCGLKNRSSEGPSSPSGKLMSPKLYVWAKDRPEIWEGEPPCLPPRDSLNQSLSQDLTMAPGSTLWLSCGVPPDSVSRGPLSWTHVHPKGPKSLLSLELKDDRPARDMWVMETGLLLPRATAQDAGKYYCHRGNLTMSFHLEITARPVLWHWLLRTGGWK
As to the method:
as §1

Sequence of human CD40 protein (P25942 21-193 limits assumed): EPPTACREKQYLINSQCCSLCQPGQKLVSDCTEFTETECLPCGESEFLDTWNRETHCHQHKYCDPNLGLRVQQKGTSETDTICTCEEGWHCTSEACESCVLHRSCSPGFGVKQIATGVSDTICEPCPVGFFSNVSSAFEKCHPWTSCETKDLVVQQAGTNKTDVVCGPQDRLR
Sequence of human CD47 protein (Q08722 19-139 limits assumed): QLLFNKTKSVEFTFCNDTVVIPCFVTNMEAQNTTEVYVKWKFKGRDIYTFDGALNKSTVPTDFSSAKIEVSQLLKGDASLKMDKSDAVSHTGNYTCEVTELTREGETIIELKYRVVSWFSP

B1: Clone 3712-IgG1v (IgG1v/kappa) (antibody)
heavy: QVQLVQSGAEVKKPGASVKVSCKASGYTFAGFEMHWVRQAPGQGLEWMGAIDPKTGGTDYNQKFKDRVTMTRDTSISTAYMELSRLRSDDTAVYYCARDLGYFDVWGQGTLVTVSSASTKGPSVFPLAPSSKSTSGGTAALGCLVKDYFPEPVTVSWNSGALTSGVHTFPAVLQSSGLYSLSSVVTVPSSSLGTQTYICNVNHKPSNTKVDKKVEPKSCDKTHTCPPCPAPELLGPSVFLFPPKPKDTLMISRTPEVTCVVVDVEHEDPEVKFNWYVDGVEVHNAKTKPREEQYNSTYRVVSVLTVLHQDWLNGKEYKCKVSNKALPAPIEKTISKAKGQPREPQVYTLPPSREEMTKNQVSLTCLVKGFYPSDIAVEWESNGQPENNYKTTPPVLDSDGSFFLYSKLTVDKSRWQQGNVFSCSVMHEALHNHYTQKSLSLSPGK
light: DIQMTQSPSSLSASVGDRVTITCRASQDIRSNLNWYQQKPGGAVKLLIYYTSRLHSGVPSRFSGSGSGTDYTLTISSLQPEDFATYFCQQSEKLPRTFGGGTKVEIRRTVAAPSVFIFPPSDEQLKSGTASVVCLLNNFYPREAKVQWKVDNALQSGNSQESVTEQDSKDSTYSLSSTLTLSKADYEKHKVYACEVTHQGLSSPVTKSFNRGEC
notes: copies: 2 + 2
With B1, the binding result in assay [1] is “no binding (tested: 10 µg/mL and 1 µg/mL)”; in [2] it was “no binding (tested: 10 µg/mL and 1 µg/mL)”; in assay [3] it was “no binding (tested: 10 µg/mL and 1 µg/mL)”; in [4], “no binding (tested: 10 µg/mL and 1 µg/mL)”; in assay [5] it was “no binding (tested: 10 µg/mL and 1 µg/mL)”; in assay [6], “no binding (tested: 10 µg/mL and 1 µg/mL)”. Besides, the binding result in [7] was “no binding (tested: 10 µg/mL and 1 µg/mL)”; in assay [8], “no binding (tested: 10 µg/mL and 1 µg/mL)”; in assay [9] it was “no binding (tested: 10 µg/mL and 1 µg/mL)”.
